In patent US9168297B2, “Regulation of skin pigmentation by neuregulin-1 (NRG-1)” (The United States of America, as Represented by the …, priority 2010, dated 2015):

How the values were obtained:
Assay type in all cases: cell-based, human
HEM-DP melanocytes = experiment: Proliferation of cultured melanocytes, total cell numbers counted; settings: NRG-1 50 ng/ml, as early as day 1 until confluent, vs control
Method: (§1) FIGS. 5A-5D illustrate the effect of NRG-1 on the proliferation of human melanocytes in culture. FIG. 5A) Lightly-pigmented (HEM-LP) and FIG. 5B) darkly-pigmented (HEM-DP) melanocytes were treated with or without NRG-1 (50 ng/ml) for 1, 3, 5 or 9 days in 10 cm culture dishes and total cell numbers were counted. Results are the averages of three studies±SD. FIG. 5C) Phosphorylated-Akt levels were detected by western blotting for HEM-LP and HEM-DP melanocytes treated with NRG-1 (50 ng/ml) for 5 days compared to vehicle treated controls; GAPDH is used as a loading control. FIG. 5D) HEM-DP melanocytes were treated with NRG-1 (50 ng/ml) for 1, 3 or 5 days and p-Akt levels were detected by western blotting compared to vehicle treated controls; GAPDH is used as a loading control. Results shown are representative of three studies; statistically significant differences are indicated.
(§2) Human neonatal epidermal melanocytes, lightly and darkly pigmented (HEM-LP and HEM-DP, respectively) were obtained from Cascade Biologics (Portland, Oreg.) and were cultured in melanocyte growth medium (MGM) consisting of Medium 254 and human melanocyte growth supplement (both from Cascade Biologics) at 37° C. under 5% CO2. Melanocytes from the third to ninth passage were used in these studies. […]

HEM-LP melanocytes = experiment: as above; settings: NRG-1 50 ng/ml, as early as day 1 until confluent, vs control
Method: as §1, §2

ERBB2 = ERBB2 protein level by western blotting in melanocytes
Method: FIGS. 7A and 7B are digital images illustrating expression of ERBBs after NRG-1 treatment. FIG. 7A) HEM-LP and HEM-DP melanocytes were treated with or without NRG-1 (50 ng/ml) for 5 days, and levels of ERBB2, ERBB3 or ERBB4 were detected by western blotting. Results shown are representative of three studies. FIG. 7B) Expression of ERBB2 was examined in HEM-LP and in HEM-DP melanocytes after 1 or 9 days or treatment with NRG-1 compared to vehicle-treated controls; the results are representative of two independent studies.
FIGS. 8A and 8B are digital images illustrating the mechanism of ERBB2 abrogation after NRG-1 treatment. FIG. 8A) ERBB2 mRNA levels in HEM-LP and in HEM-DP melanocytes were detected by RT-PCR after treatment with or without NRG-1 (50 ng/ml) for 1 day. FIG. 8B) MG132 (120 nM) was added to the melanocyte culture medium to inhibit proteasomal degradation during treatment of HEM-LP and HEM-DP melanocytes with or without NRG-1 (50 ng/ml). Proteins were extracted for each sample, and ERBB2 levels were detected by western blotting. Results are representative of three studies.
Fibroblast cultures in 100-mm dishes were solubilized in appropriate volumes of M-PER mammalian protein extraction reagent (Pierce Biotechnology, Rockford, Ill.) containing a Protease Inhibitor mixture (Roche, Mannheim, Germany) and phosphatase inhibitors. The protein concentration of each extract was measured using a BCA protein assay kit (Pierce, Rockford, Ill.). Cell extracts (20 μg) were separated on 8-16% gradient SDS polyacrylamide gels (Invitrogen, Carlsbad, Calif.), after which proteins were transferred to PVDF membranes (Invitrogen, Carlsbad, Calif.). Membranes were blocked for 1 hour in PBS or Tris buffered saline (TBS) containing 0.1% Tween 20 and 5% (w/v) nonfat dry milk powder and were incubated overnight at 4° C. with the primary antibody in PBS containing 0.1% Tween 20 and 2.5% (w/v) nonfat dry milk powder or in 0.1% Tween-TBS with 5% BSA, depending on the antibody. The following primary antibodies were used: anti-human DKK-1 (0.2 μg/ml), anti-human DKK-3 (0.1 μg/ml), anti-human bFGF (0.1 μg/ml), anti-human SCF (0.1 μg/ml), anti-human mouse monoclonal ERBB3 (1 μg/ml) and anti-human mouse monoclonal ERBB4 (2 μg/ml) antibodies from R&D Systems, neuregulin-1α/β1/2 (C-20) (1:500) and GAPDH (FL-335) (1:10,000) antibodies from Santa Cruz Biotechnology, ERBB2 rabbit monoclonal (1:1000) and phospho-Akt (Ser473) (1:1000) antibodies from Cell Signaling Technology. Membranes were then incubated with an HRP-linked anti-rabbit antibody (GE Healthcare) at 1:10,000 dilution or with an anti-goat antibody (DAKO) at 1:2,000 dilution at room temperature for 1 hour. Antigen-antibody complexes were detected using an ECL-plus Western blotting detection system (GE Healthcare). […]

B1: NRG-1: commercially available recombinant human neuregulin-1 (rhNRG-1-β1, R&D Systems), SEQ ID NO: 11 (protein)
chain: TSHLVKCAEKEKTFCVNGGECFMVKDLSNPSRYLCKCPNEFTGDRCQNYVMASFYKHLGIEFMEAEELYQK
For B1, the Cell numbers (HEM-DP melanocytes) was “significantly higher”, the Cell numbers (HEM-LP melanocytes) was “significantly higher” and the “Expression of ERBB2” value (ERBB2; HEM-LP and HEM-DP, NRG-1 50 ng/ml, 5 days) was “almost completely undetectable”. The “Level of ERBB2” value (ERBB2; both types of melanocytes, NRG-1, 1 day) was “significantly decrease” and the ERBB2 expression (ERBB2; both types of melanocytes, NRG-1, day 3, lasted until day 9) was “completely disappeared”.
